Test results: PMC4108180

Columns and labels:
Experiment in all cases: purified protein
purified protein [1] = substrate: O=C(O)[C@@H](O)[C@H](O)[C@@H](O)[C@@H](O)CO; conditions: 0.5 mM NAD+, 50 mM phosphate pH 7.5, 30 °C
purified protein [2] = substrate: O=C(O)[C@@H](O)[C@H](O)[C@H](O)[C@@H](O)CO; conditions: 0.5 mM NAD+, 50 mM phosphate pH 7.5, 30 °C
purified protein [3] = substrate: NC(=O)c1ccc[n+]([C@@H]2O[C@H](COP(=O)(O)OP(=O)(O)OC[C@H]3O[C@@H](n4cnc5c(N)ncnc54)[C@H](O)[C@@H]3O)[C@@H](O)[C@H]2O)c1; conditions: with L-galactose, 50 mM BICINE pH 8.0, 30 °C, varied: cofactor
purified protein [4] = substrate: O=C1O[C@H]([C@@H](O)CO)[C@@H](O)[C@@H]1O; conditions: 2.5 mM MOPS pH 7.1, 0.2 M NaCl, 1% DMSO, 30 °C
purified protein [5] = substrate: C[C@H]1C[C@@H](O)[C@H](O)C(=O)O1; conditions: 2.5 mM MOPS pH 7.1, 0.2 M NaCl, 1% DMSO, 30 °C
purified protein [6] = substrate: C[C@H](O)[C@H]1OC(=O)[C@@H](O)[C@@H]1O; conditions: 2.5 mM MOPS pH 7.1, 0.2 M NaCl, 1% DMSO, 30 °C
purified protein [7] = substrate: O=C1O[C@@H](CO)[C@@H](O)[C@@H]1O; conditions: 2.5 mM MOPS pH 7.1, 0.2 M NaCl, 1% DMSO, 30 °C
purified protein [8] = substrate: O=C1O[C@H](CO)[C@@H](O)[C@@H]1O; conditions: 2.5 mM MOPS pH 7.1, 0.2 M NaCl, 1% DMSO, 30 °C
purified protein [9] = substrate: O=C1O[C@@H](CO)[C@H](O)[C@@H](O)[C@@H]1O; conditions: 2.5 mM MOPS pH 7.1, 0.2 M NaCl, 1% DMSO, 30 °C

B1: Bvu0222 (Phocaeicola vulgatus ATCC 8482) (protein)
chain: MKAIQITAPSEMKVVDIEKPVLEPGEVLVKIKYVGFCGSDLNTFLGRNPMVKLPVIPGHEVGAVIEAVGKDVPDSLKPGMSVTVNPYTNCGKCASCRNGRVNACEHNETLGVQRNGAMCEYIALPWSKIIPAHRIPPRDCALIEPMSVGFHAVSRAQVTDIDIVMVIGCGMIGMGAIVRSALRGATVIAVDLDDEKLELAKRIGAHHTINSMTENVHECLTKITEGLGPDVVIEAVGSPATYVMAVNEVGFTGRVVCIGYAKSEVSFQTKYFVQKELDIRGSRNALPTDFRAVIRYMEQGTCPKNELISKVVKPEAAIQAMKEWAAAPGKVFRILVEFD
Q: B1 was tested. Which Km (purified protein [1]) did it give?
A: 510 ± 70 µM

Q: And the kcat (purified protein [1])?
A: 0.2 ± 0.1 s⁻¹

Q: And the kcat/Km (purified protein [1])?
A: 390 ± 60 M⁻¹ s⁻¹

Q: What about the Km (purified protein [2]) of the same protein?
A: 36 ± 3 µM

Q: And the kcat (purified protein [2])?
A: 0.6 ± 0.1 s⁻¹

Q: What about the kcat/Km (purified protein [2]) of the same protein?
A: 17000 ± 1000 M⁻¹ s⁻¹

B2: Bvu0219 (Phocaeicola vulgatus ATCC 8482) (protein)
chain: MNYNEIGKTGMRVSNLSFGASSLGGVFHDIREAEGIKAVYTAVENGMNFIDVSPYYGHYKAETVLGKALKEIPRDKYYLSTKVGRYGKDGVNTWDYSGKRATESVYESLDRLHIEYIDLINVHDVEFSDMNQVVNETLPALVELKKKGIVGHVGITDLQLENLKWIIDHSEPGTVESVLNFCHYCLNDEKLTDYLDYFESKNIGIINASPLSMGLLSQRGVPAWHPAPQSLVEACRKAVQHCLSKNYPIEKLAIQYSVSNPRIATTLFSSANPDNVLKNITYAEEPIDWNLVKEVQEIIGKQMRISWANS
Q: B2 was tested. Which Km (purified protein [3]) did it give?
A: 3000 ± 200 µM

Q: What about the kcat (purified protein [3]) of the same protein?
A: 25 ± 1 s⁻¹

Q: And the kcat/Km (purified protein [3])?
A: 9000 ± 100 M⁻¹ s⁻¹

B3: Bvu0220 (Phocaeicola vulgatus ATCC 8482) (protein)
chain: MMDFNIIDAHSHLWLRQDTEVNGLPIRTLTNGRSLFMGEERQMVPPFMIDGRNSAEVFLSNMDYAQVSAAVVTQEFIDGIQNEYLAKVSHKYPDRFFVCGMCEFRKPGYLQQAKELISSGFKAIKIPAHRLFLKEGRVMLNSDEMMEMFHYMQEKDIILSIDLADGDTQVQEMKEIIQEYPQLRIAIGHFGMVTTPHWQEQIKLARHKNVMIESGGITWLFNSEFYPFHGAVKAIKEAADLVGMDKLMWGSDYPRTITAITYKMSYDFILKTTEMTQEEKALFLGKNAERFYGFKNLISLPYIKNMSE
Q: Which results are given for B3?
A: Km (purified protein [4]): 1950 ± 310 µM; kcat (purified protein [4]): 34 ± 3 s⁻¹; kcat/Km (purified protein [4]): 18000 ± 2000 M⁻¹ s⁻¹; Km (purified protein [5]): 32 ± 4 µM; kcat (purified protein [5]): 23 ± 1 s⁻¹; kcat/Km (purified protein [5]): 720000 ± 80000 M⁻¹ s⁻¹; Km (purified protein [6]): 1320 ± 210 µM; kcat (purified protein [6]): 23 ± 2 s⁻¹; kcat/Km (purified protein [6]): 18000 ± 2000 M⁻¹ s⁻¹; Km (purified protein [7]): 5.5 ± 0.55 mM; kcat (purified protein [7]): 5.3 ± 0.4 s⁻¹; kcat/Km (purified protein [7]): 930 ± 40 M⁻¹ s⁻¹; Km (purified protein [8]): 1700 ± 140 µM; kcat (purified protein [8]): 1 ± 0.1 s⁻¹; kcat/Km (purified protein [8]): 500 ± 30 M⁻¹ s⁻¹; Km (purified protein [9]): 500 ± 40 µM; kcat (purified protein [9]): 38 ± 1 s⁻¹; kcat/Km (purified protein [9]): 80000 ± 5000 M⁻¹ s⁻¹
